Read-outs that look alike come from different tables or passages of the source.

Usually stoichiometry N stands for the number of molecules, sites or subunits per partner or assembly.

The target in data set [1] is microtubules of porcine tubulin (GMPCPP or Paclitaxel stabilised, biotin and Alexa-Fluor-633 labelled) (porcine) (UniProt P02550). In words: single-molecule TIRF motility assay on microtubules.
Data set [2] shares this target. The data set is described as above. This is another data set of the same source.
Data set [3] has as its target Drosophila melanogaster KLP61F BASS-XL (extended Bipolar assembly domain minifilament) (Drosophila melanogaster) (UniProt P46863). The data set is described as follows: crystal structure.
The target in data set [4] is Taxol-stabilized microtubules (unlabeled, Alexa 647-labelled and biotinylated tubulin 50:2:1.5) (not stated (Pork or Bovine brains)) (UniProt P02550). In words: single-molecule TIRF motility assay on microtubules.
Taxol-stabilized microtubules (unlabeled, Alexa 647-labelled and biotinylated tubulin 50:2:1.5) (not stated (Pork or Bovine brains)), sequence (P02550 whole entry, looked up): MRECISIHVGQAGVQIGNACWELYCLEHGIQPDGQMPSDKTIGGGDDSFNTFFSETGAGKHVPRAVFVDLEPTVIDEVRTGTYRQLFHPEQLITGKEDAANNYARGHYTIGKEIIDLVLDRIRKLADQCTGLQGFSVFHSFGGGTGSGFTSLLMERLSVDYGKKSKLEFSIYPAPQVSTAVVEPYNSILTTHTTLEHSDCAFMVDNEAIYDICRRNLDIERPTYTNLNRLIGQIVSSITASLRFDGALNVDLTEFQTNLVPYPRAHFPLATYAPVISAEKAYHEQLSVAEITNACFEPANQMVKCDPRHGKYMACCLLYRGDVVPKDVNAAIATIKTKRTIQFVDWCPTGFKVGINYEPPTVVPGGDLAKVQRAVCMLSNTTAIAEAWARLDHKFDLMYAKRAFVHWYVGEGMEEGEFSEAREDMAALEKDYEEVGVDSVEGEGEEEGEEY
Data set [5] deals with the molecule itself. Described as above.

microtubules of porcine tubulin (GMPCPP or Paclitaxel stabilised, biotin and Alexa-Fluor-633 labelled) (porcine), sequence (P02550 whole entry, looked up): as above

Regarding “Drosophila KLP61F kinesin-5 mini-tetramer without tail (kMBX), neon green tagged (from UniProt P46863 1-369; P46863 597-833)”, the dwell time at MT plus ends in data set [1] turned out to be 25 s; in data set [2], 78 s.

Regarding “Drosophila melanogaster KLP61F BASS-XL (extended Bipolar assembly domain minifilament) (from UniProt P46863 620-804) (domain or fragment)”, the stoichiometry N in data set [3] was determined as 4.

With “human Eg5 kinesin-5 mini-tetramer with tail (hMBXt), TMR labelled (from UniProt P52732 1-374; P46863 597-799; P52732 913-1056)”, in data set [4], the dwell time at MT plus ends, longer lifetime population was 484 s and the dwell time at MT plus ends, shorter lifetime population came out at 16.4 s.

“human Eg5 kinesin-5 mini-tetramer without tail (hMBX), TMR labelled (from UniProt P52732 1-374; P46863 597-799)”: in data set [4], the dwell time at MT plus ends, longer lifetime population amounted to 140 s and the dwell time at MT plus ends, shorter lifetime population was found to be 14.6 s.

B1: human Eg5 kinesin-5 mini-tetramer with tail (hMBXt), TMR labelled (other, Homo sapiens | Drosophila melanogaster, UniProt P52732 1-374, looked up)
chain: MASQPNSSAKKKEEKGKNIQVVVRVRPFNLAERKASAHSIVESDPVRKEVSVRTGGLADKSSRKTYTFDMVFGASTKQIDVYRSVVAPILDEVIMGYNATIFAYGQTGTGKTFTMEGERSPNEEYTWEEDPLAGIIPRTLHQIFEKLTDNGTEFSVKVSLLEIYNEELFDLLNPSSDVSERLQMFDDPRNKRGVIIKGLEEITVHNKDEVYQILEKGAAKRTTAATLMNAYSSRSHSVFSVTIHMKETTIDGEELVKIGKLNLVDLAGSENIGRSGAVDKRAREAGNINQSLLTLGRVITALVERTPHVPYRESKLTRILQDSLGGRTRTSIIATISPASLNLEETLSTLEYAHRAKCILNKPEVNQKLTKKALAQSLQDQTNLHNKLIGEVMKISDQHSQAFVAKLMEQMQQQQLLMSKEIQTNLQVIEENNQRHKAMLDSMQEKFATIIDSSLQSVEEHAKQMHKKLEQLGAMSLPDAEELQNLQEELANERALAQQEDALLESMMMQMEQIKNLRSKNSISMSVHLNKMEESRLTRNHRIDDIKSGIQDYQKLGIEASQSAQAELTSQMEAGMLLEQDLKLDIPTGTTPQRKSYLYPSTLVRTEPREHLLDQLKRKQPELLMMLNSSENNKEETIPDVDVEEAVLGQYTEEPLSQEPSVDAGVDSSSIGGVPFFQHKKSHGKDKENRGINTLERSKVEETTEHLVTKSRLPLRAQINL
modifications: Tetra-methyl Rhodamine (TMR) on the single reactive cysteine in the neck linker (N358C)
Consider B1, for which the binding result in data set [5] is reported as “binds”.
